According to the DeepSol protein solubility set:

assay: soluble on expression in E. coli; label from the status in PepcDB or PDB records

Sequence | soluble on expression in E. coli
SLQTEESICTKIMKELHSEDSPNALVIKNEHVKKCDTWPSGGEMVVKDLTVKYVDDGNAILENISFSISPGQRVGLLGRTGSGKSTLLSAFLRMLNIKGEIQIDGVSWNSMTLQEWRKAFGVITQKVFIFSGTFRQNLDPNGKWRDEEIWKVADQVGLKSVIEQFPGQLNFTLVDGGYVLSHGHKQLMCLARSVLSKAKIILLDQPSANLDPITYQVIRRVLRQAFAGCTVVLCEHRIEAMLDCQRFLVIEQGNVWQYESLQALLSEKSVFQRALSSSEKMKLFHGRHSSKQKPRTQITAVKEETEEEVQETRL | not soluble
MAHHHHHHMSNHGGSSSLDALGGVETAAAETTRNIVLGLPKDGPVPGSSDAASLQAAEAFIGSIQQEIMACDMANARAMELYARHWWTKVPYFGKRFGSTTATLEVTGADGGGVSGLPACTGTSDGQHKHMRLERSSEVAAVPGTSRGQQQRLNSWFFKLRHPGWVPIIQRPWVPYFCIGCLMLVWTPDIWKLRTLHWCDYQYAEFRRAVHRAYWRATMSAEDYKELMEELERGRPPPFGVSKCPL | not soluble
MEYNPFHNGHLYHLTSARELVKPDYTIAVMSGNFCQRGEPAVIDKFARAEIALRMGVDVVLELPVVFATQDAGGFAFGAVCVLDATGVVTDVVFGSESNDIEFLQRVARILYEQPDEYQKFLHEELKKGYSFPNARKYALMRYFSMKGWNEEEVLKLEKSNDILGVEYIHSALKIGSNIRFHTIKRVGAEEKDTSFRGRFSSATAIRNLMREKRWEEVRDSLPEDSFEILMREINEGRGPVFLENMGDFLLSFFRLKNMDFFEKIHGFSEGLEKRFHVCARQTGSYRDFLECVKAKRFTFSRIRRLALFSVFEVNKEFVEKSNTKGPQYIRILGFTEKGREILSLMRKKAKLPIVTNMSLYRKVLEKTDLPVDKQLFLEQIDLDVKATNFYSMFFPSVEQRCGERDFSIHPIFLRTEM | not soluble
MKQFKRGIERDGTGFVVLMAEEAEDMWHIYNLIRIGDIIKASTIRKVVSETSTGTTSSQRVHTMLTVSVESIDFDPGAQELHLKGRNIEENDIVKLGAYHTIDLEPNRKFTLQKTEWDSIDLERLNLALDPAQAADVAAVVLHEGLANVCLITPAMTLTRAKIDMTIPRKRKGFTSQHEKGLEKFYEAVSTAFMRHVNLQVVKCVIVASRGFVKDAFMQHLIAHADANGKKFTTEQRAKFMLTHSSSGFKHALKEVLETPQVALRLADTKAQGEVKALNQFLELMSTEPDRAFYGFNHVNRANQELAIETLLVADSLFRAQDIETRRKYVRLVESVREQNGKVHIFSSMHVSGEQLAQLTGCAAILRFPMPDLDDEPMDEN | not soluble
MGSDKIHHHHHHMNTRILNALKQTTLIEEKQKASHCFVEDMPPYAINQELSLKEHGRVLSNYFFKNKDIYISRHNRYADYPTHTHTFLEMNYMLQGHATEIVDDKKITLNTGDLLLLDEGSTHSIKALGDNDLLINILFRTKNISINLLNDLRRSNNIFYDFLLSQVIEDSNHKRDYLVFTKKRNNEVQETLDRIIDEYYLKRDFSNSIIKSYLSILLVQLVREYPLNGPHQENKSSLLAIKVLKAIAEEYKTVSLEELANRYNYNKNYLSNIFKSEVGQTFSEVLTRQRLIQAHTLIASTSLPIATIMEQVGIKNKTFFYQKYKNYYKTLPSTDR | not soluble
LGGVAPEQVAYAVEQAGKRLQERDNAGVKVRPARLTDLDALEGMVAYWAGLGENLPRNRNELVRDIGSFAVAEHHGEVTGCASLYVYDSGLAEIRSLGVEAGWQSQGQGKAIVQHLVEKAREMAIKKVFVLTRVPEFFMKQDFIPTSRSLLPEKVLKDCDQCPRQH | not soluble
MGSDKIHHHHHHMAKERVDVLLVEQGLFDTREKAKRAVMAGEILGDNEERLDKPGVKIDPSVKLHLKGKPMPYVSRGGLKLEKALKVFGLDVKGLTVLDIGSSTGGFTDVMLQNGAKLSYALDVGTNQLVWKLREDPRVVVMENTNFRYSKLEDFTEGQPEFASIDVSFISLKLILPALKNIIKTHGSVVSLIKPQFEAGRENVGKHGIVRDRKVHEEVLKNVLAMANAEGFNVKGLDFSPIKGGEGNIEFLAWLERSDTDQGVIEENVDTQKVIDSAYSNLNS | not soluble
MAHHHHHHMMRSRRPLSASRASARASAASRPQPHTTVSSDDASRSQTTAPIYRPLRYVGRGSFGVVLLAEEVHTGDRVAIKRVHYDARLHNREVAILNSVLVDNPRHQQPSSTAVDSNDASRRPGGAARASCTSFLSASSSSHTVEDVHLWPGTHHPNIVELLDFYVTYDTASSEQALGADMVGAGGAGAGFEFLPSYHPAAHRYPLSGGSGAASASAPPVPAPLAAFAYLEMVMSYLPMDLCYVKRYYFRFHDMPTIATSSSSSPIASPEQAPTELSSGELPEGTADRLPASPKHAGTGCNGNNSSRHSSTSSSGGDVCNHLPLRWVKVVLFQLARALAFMHVRHVCHRDLKPANVLVDPDTGRVQVCDFGSAKQITRPAEEKNVSYICSRYYRAPELLFGALHYGCAVDMWSFGCIAAELLRESGKPLFRGCTSIDQMAELFKVLGAPSKREMYAMNPQCAEALLRTRAMHRHQSLDNDPHSGSGGGVRQDRSCGLELEVDYQAEEEDDVELRGGAQQGGYDVDSHGEFLRDALDDGISSQASASPGMATASPPSSSTKDPRDYKTTFSAPPSTAATAMLDDVAPTPFEEYYDVLKVRAIPWRRLFPVDTPTEAVALVASLLCYAPDKRLTAAELVEHPFFDDLFSAADAQLATVDRDAATAVASGATMSPSEDDGVASAALRLPNGRLMPLSMFQVTEVERGLYTDAFLTRMARQAELVAAVMKQDEYP | not soluble
MAVTREDLEQNRLRAALGDSPVASTLLTEAALEASLASTLARLSAAPCEGQDAWVFGYGSLIWNPMIFHTEVARATVRGYHRGFYLYSRINRGTWDNPGLVLGLDRGGSCSGVAFRVPRAHAEREFRVLWRREMLTGAYLPRWLPTEIHGERILALAFVMNRTHEAYAGRLPDERVVGCLHKAVGLYGPAREYLQRTLIGLASNGLHDPYLDRLWQRLQAMDINAANAPSQTADTDGTGPLPDPYLSALEHHHHHH | not soluble
MSFNRISAAEAASLIKHGYNIGLSGFTPAGTAKAVTAELAKIAEAEHAKGNPFQVGIFTGASTGESCDGVMSRAKAIRYRAPYTTNSDFRKAVNNGEIAYNDIHLSQMAQEVRYGFMGKVNVAIIEACEVTPDGKIYLTAAGGISPTICRLADQIIVELNAAHSKSCMGLHDVYEPLDPPYRREIPIYKPSDRIGLPYIQVDPKKIVGVVETNWPDEARSFADADPLTDKIGQNVADFLAADMKRGIIPSTFLPLQSGVGNIANAVLGALGRDKTIPAFEMYTEVIQNSVIGLIREGRIKFGSACSLTVTNDCLEGIYNDMDFFRDKLVLRPSEISNNPEVVRRLGIISINTAIEVDLYGNVNSTHIGGTKMMNGIGGSGDFTRNAYISIFTCPSVAKEGKISAIVPMVSHLDHSEHSVNIIITEQGVADLRGKSPKERAQAIIENCAHPDYKQLLWDYLKLAGGRAQTPHAIQAALGMHAELAKSGDMKNTNWAEYARLEHHHHHH | not soluble
GPGSMSGGLPRQFVLKVERHVPVNKGMGLAYPTVPGGSDVADADATPHAGAGERHQSNEAGGDMASGTLKDEAGSIHLSHEKETQTEEVPLPTCEANACDVDGTHCLSVDALDMAVRSNGAALRQMRSSSHLTAAFHTSASDDYGDSISPNPSDRQSFIGSLRVSYVELMSGESIPVYFPPSLGTSGGVEGKTMTLSEDLGCENQ | not soluble
MGSDKIHHHHHHLSFIIRKALLTDVAAIVQLERAHVDDELLGSNSQLHAHSFTKSEVSQLINQHWFIVAEEQGVIIGYVMAAKWSFFSAQPLYRHIIQKLKFADLQGQALSTTNTCQYGPVWIQESKRGQGVFSALVTELKKQVADTFPFMVTYVAADNARSLAAHQQKAAMTEIDQFSFEQRDYCLLATTNIT | not soluble
GPGSFIDPPSDQGMSDAFYQLLYFGAVDDGLQLTDFGRRMAVLPVDVCLARMLLMAPKHGCGADAAVVAAMLEAGNAFSRPPSRLAEAREAHARFDNADGDHVALFRVFHAYFKNQQNGKRFCYENYLRHQTLQQAVQVYKQLRRLMSQLMIPVQSTYIPEREYVDTVALRKAVLEGFFTQVAFLTPVAPITH | not soluble
QVQLQQSGAELVKPGASVKMSCKASGYTFTTYPIEWMKQNHGKSLEWIGNFHPYSDDTNYNEKFKGKAKLTVEKSSSTVYLEFSRLTSDDSAVYYCAIHYGSAYAMDYWGQGTSVTVSS | soluble
SLNSVKRVGGSNRYGTAVQISKQMYSTASTAVIVGGSSYADAISAAPLAYQKNAPLLYTNSDKLSYETKTRLKEMQTKNVIIVGGTPAVSSNTANQIKSLGIS | not soluble
MDNKALLTHVDINNVVCAMPLPYTRLYEGLASGLKAQFDGIPFYYAHMRGADIRVECLLNGVYDMAVVSRLAAESYLTQKGLCLALELGPHTYVGEHQLICRKGESANVKRVGLDNRSADQKIMTDVFFGGSDVERVDLSYHESLQRIVKGDVDAVIWNVVAENELTMLGLEATPLTDDPRFLQATEAVVLTRVDDYPMQQLLRAVVDKHALLAHQQRVVSGEQEPSY | soluble
MGSDKIHHHHHHMGIHLDFGISPKTFRQTYLYQKPKLFKGAVRNLEAASCKYINEIYQRADPTAPLFHLRKKGAIVPKEEYVESFDDLGKTRYRFIKSVIYEHMKNGASLVYNHINNEPFSDHIARQVARFAGAHTIVSGYLAFGSDESYKNHWDTRDVYAIQLFGKKRWQLTAPDFPMPLYMQQTKDTDISIPEHIDMDIILEAGDVLYIPRGWWHRPIPLGCETFHFAVGTFPPNGYNYLEWLMKKFPTIESLRHSFSDWEQDRTRINDTAAQIAAMIADPVNYEAFSEDFLGKERTDTAFHLEQFANPNATPLSDDVRLRLNANNLDTLEKGYLIGNGMKISVDELGKKVLEHIGKNEPLLLKNLLVNFNQAKHEEVRKLIYQLIELDFLEIL | not soluble
MPTFLLVNDDGYFSPGINALREALKSLGRVVVVAPDRNLSGVGHSLTFTEPLKMRKIDTDFYTVIDGTPADCVHLGYRVILEEKKPDLVLSGINEGPNLGEDITYSGTVSGAMEGRILGIPSIAFSAFGRENIMFEEIAKVCVDIVKKVLNEGIPEDTYLNVNIPNLRYEEIKGIKVTRQGKRAYKERVFKYIDPYGKPFYWIAAEEFGWHAEEGTDYWAVLNGYVSVTPLHLDLTNYKVMKSIKYLEDSP | soluble
MSLSKVLYIQDHDVTWIQFNRPEKRNAIDEETMDQFAEALAQAKGDQSKVIIVTGAGEKAFCAGGDLSSFHKLKTESEAKAMLAKMAKILLDVYYCPKLTVAALNGAAVGGGCEIAAACDIRLAAPHSKFGFIQGTLGITTGWGGTSFLMTRVQPHVSLEMTMTGKVYSSDVGENLGFIQKVIQKIPFREGVKEWLGLYTVLDQEVLIAYKERHLDRISRKELIWRIEREVAKCAQLWERDAHHEAVDAFLREGHHHHHH | soluble
MGSDKIHHHHHHMSDSPLIAFPRGCITGTFIRRVKRFSVEMETAGAGAPERVWIHSNNSGSMLGLLRAGAPVLASPAANPARKLKWTQELAGLDGMWVGVNTQTPNRLLEAAFHAGRLPWAAGYTMFRREARCGASRLDARMDAPQDSGLPPLWVECKNVTMVEDDVAAFPDAATERGQKHLREMMEIVRQGQRAAMFYLVQRADGHCFGPADYVDPVYAGLFYEAAAAGVEMYPHRALVSEHGIDLGPLLPVVPPPGV | not soluble
MSLEGDRGQDDVLRILVATDTHLGYKADDSERGGDSFETFQEILEIGRNLKVDFLLHGGDLFDENRPSRATLYRTFCLLRKFCFGDGAVSFEVLEGAAESRGRGEGFRFGLNYLDENINVCMPIFAMHGNHDDPGEQSHLSPLDLLEAAHLINYFGRCDATDEVTIKPILIKKGQTKVAIYGVGWIRDARLHRAFNNGKVRFLVPSASAGEDSVDDWFNIMVVHQNMYKGAFGGQPAKNCIHEQMLPDFLDLAIWGHEHDCHLDLRDAPQGTFRVLQPGSSIATSLVAGEALPKHVFLLEIRGENYRVTPQRLRTVRPLLFEDVALSDLLHSRPPLAPALSGVRTPQSRVSNSGAGRNLQTAQPAEDRDVWQLLTDAVEELLSRFAREEGHHHHHH | soluble
